Experimental data as given in PMC11098746 (2024).
No end group written: not given here.

Tests used:
Experiment in all cases: AVEXIS screen signal:noise (double-corrected)
ADP267 = molecular target: T1, ADP267
T1 chain: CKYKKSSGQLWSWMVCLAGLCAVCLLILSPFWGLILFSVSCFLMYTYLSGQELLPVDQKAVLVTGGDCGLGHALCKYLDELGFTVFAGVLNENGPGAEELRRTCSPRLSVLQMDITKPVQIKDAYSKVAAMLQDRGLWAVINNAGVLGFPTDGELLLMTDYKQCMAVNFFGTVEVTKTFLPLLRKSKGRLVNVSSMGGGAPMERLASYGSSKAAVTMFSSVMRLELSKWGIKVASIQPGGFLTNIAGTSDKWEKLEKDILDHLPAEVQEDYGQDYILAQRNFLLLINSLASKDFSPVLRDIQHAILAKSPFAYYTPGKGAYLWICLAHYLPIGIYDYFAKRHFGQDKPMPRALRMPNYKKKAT

ADP298 = molecular target: T2, ADP298
T2 chain: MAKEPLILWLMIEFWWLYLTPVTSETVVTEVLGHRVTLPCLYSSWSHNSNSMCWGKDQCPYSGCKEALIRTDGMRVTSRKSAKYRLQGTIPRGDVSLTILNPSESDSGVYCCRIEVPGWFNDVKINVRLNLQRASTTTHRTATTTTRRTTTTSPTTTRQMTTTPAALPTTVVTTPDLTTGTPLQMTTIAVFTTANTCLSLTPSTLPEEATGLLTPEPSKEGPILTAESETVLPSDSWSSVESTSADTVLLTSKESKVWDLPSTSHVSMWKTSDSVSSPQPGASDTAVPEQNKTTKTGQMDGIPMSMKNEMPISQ

ADP376 = molecular target: ADP376
ADP341 = molecular target: T3, ADP341
T3 chain: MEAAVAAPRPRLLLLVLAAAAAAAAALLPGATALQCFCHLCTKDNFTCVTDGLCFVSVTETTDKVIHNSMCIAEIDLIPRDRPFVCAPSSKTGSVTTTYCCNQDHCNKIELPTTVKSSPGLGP

ADP156 = molecular target: T4, ADP156
T4 chain: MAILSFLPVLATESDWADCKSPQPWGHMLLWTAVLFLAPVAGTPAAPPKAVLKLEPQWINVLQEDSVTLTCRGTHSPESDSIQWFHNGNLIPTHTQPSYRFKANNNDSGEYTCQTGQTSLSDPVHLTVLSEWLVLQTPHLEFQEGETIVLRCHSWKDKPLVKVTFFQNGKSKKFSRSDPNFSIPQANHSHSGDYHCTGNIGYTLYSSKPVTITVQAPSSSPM

ADP369 = molecular target: ADP369
ADP353 = molecular target: T5, ADP353
T5 chain: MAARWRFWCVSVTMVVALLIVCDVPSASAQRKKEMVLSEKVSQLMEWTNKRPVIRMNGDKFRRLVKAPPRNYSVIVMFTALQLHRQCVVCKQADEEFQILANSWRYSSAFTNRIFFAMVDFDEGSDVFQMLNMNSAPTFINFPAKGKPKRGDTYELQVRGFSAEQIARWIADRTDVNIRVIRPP

ADP103 = molecular target: T6, ADP103
T6 chain: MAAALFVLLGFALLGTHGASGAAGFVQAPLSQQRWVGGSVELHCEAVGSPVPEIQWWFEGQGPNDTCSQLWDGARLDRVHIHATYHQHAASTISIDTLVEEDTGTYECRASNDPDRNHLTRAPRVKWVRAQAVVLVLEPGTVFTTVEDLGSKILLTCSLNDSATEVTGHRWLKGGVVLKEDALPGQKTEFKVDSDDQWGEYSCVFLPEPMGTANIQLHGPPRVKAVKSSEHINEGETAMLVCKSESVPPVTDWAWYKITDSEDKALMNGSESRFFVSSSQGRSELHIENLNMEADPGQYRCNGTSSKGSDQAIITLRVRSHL

B1: ADP397 (protein)
chain: YLSSENQKKTIATVHNNARTNTLKKNNANNNNANDIFGLSPSEVPNLIDDEEEYEILEGVKNNADLTRSTNIDHPSPSSTMIDLDNIITEISKLKKKKLKKEMNNKLEQQTNQNNNAIHHNNENEINTFTQNIKTNSNELKNQDSSNSLISTNSNTMDELLLYSTNSEDNLDISFGELQLYENSDEDTSDYEYVNEDYSVNHIFSNDAEESFNILEDVENIALSSSNRYQYSPIGPYKKKHTKVFENFKMTRNYDEFLKLYNLKDSSDNQEEYYELLAGEPFKLNSYYYRDVKYENVKKYIFKEIYDNIQNIATENKIIVSKKEELFFYFIKSLLKNNFICLSYEEEENLLSESKLLLEAMISKKIQ
modifications: bait human Fc-tagged dimer; N-glycosylation sequons mutated in Plasmodium baits
**Q.** B1 was tested. Which binding score (ADP267) did it give?
**A.** 21.9

**Q.** And the binding score (ADP298)?
**A.** 7.9

B2: ADP398 (protein)
chain: SNHIKSVNRCFIPFISEYIYKQKNRKNNIAYDSSNSHYNDKIIPCGNYNKQLKYKINFCRNLYFNNKNEYNRICSRNKLNFHNIQTDNTIYKPKKKYYEVGKVREKIKMYTLFKDDKINTLKCNEEESVTSETINKHDSSVKVKGRRKKNIASNENIMNPNNKAVSSINTNLADSSNNKNDNSLNSKKNDNTLNSKKNDNTLNSKKNDNTLNSKNNNNALNSKNNNNALNSKKSNNAYNDKHIDHIIPEGKNKINNNIDVKHNINNKLNEINEEPYEDTHNKEENSANKNDNDEKRKEENNNIARRYIKNDQMSYNNINTNSNEYDKNAATLDETYIGKTFEGYVYSVNKNAACIKLKNINKYGLLFKNKANLGDDIEDMNDFFEKDQPVHVKILGINTKKNIFYLGNIIKYNENIKLSKGEYSKGLITKVCDSYCFIKVLKNGATGYLHKSKLFCMNDKEKKNNDNQNYDNPNNDNPNYDNQNYDNQNYNNPNYDHPNYDNQNYDNQNYNNPNNDYSTSQLYNSDNLQMDFIYKLQFTKIFNIWDIIDVEILGTPQNDYKSNYILTIPRGSKTFKKILNYLNVLKENEDINNIQYKGDYIYSIDNNKNDNIIDSDINNHHINNKKKKKNLYDIQNNMNHAPFNKFHTEDEYLFNDHVQENVHTFYEKNKKYKITYDKENNHKMNKAYYLKKNKELPFNNKFKKIIKNIYDLPNTISLSMLSKTIKIPLASIKKYFIIHENKEYNSAYKINSEQIKRICQHFKIDCNVEQRDDNVVTKVNGATKDCQEKVFKNVAQDRLKEGEQERVIKVEAKIKNDEMVMQEQKDTKEEKHMDVQFIEEKDINVQHINVQDMDVQDMDVQDINVQDMDVQNINVQDINIQDMDVQNINNAITLNKATSCQTDESRDAPGGDQNEALDEKDSMEKSKEKKKKKGKSRKKNKDTNLALKSDSIQKSKTTLDDKKRNVVVTFIGHINHGKTSLFDYICKTNEQKKEYGLITQNIRAFKATVRNNFAFTLVDTPGHEAFMPMRSRGVKISDLSILVISGDEGIQEQTVECIKLIKEFNIKIIIAITKVDIPNVDVDRIINDLLYHDITTELNGGEIQVVECSIYKEESIDKLLDAIYLESEFLNLQTNPDKKHEQAQGVVLDSYIDKNGIVSINLLQNGVLNINDHFYTGSSYGKVKILKDHLNKNIKSAYPSDPIKIIGYNKNSVPVAGDKFYVVENEALAKEIAEHNKNKMLTMEINNFAYDQTNMNRYKDFIISRENKIGGSSGILGENNLKNDIDGNMARDDNMARDDNMASDDNMARDGNRANNDNIASDDNMANDYDKIKETKMYTNNKAFQKDDFLKIHLNNANENVINMDPSTHIGKNEIKTIYSNYIIKCDKQGSIEVLKNCMLKLQKEDSICKIKNKIIYADIGNVASSDIKYATSFNAAIIAFGVKLSNDIKGSKNSKGSKNHNNYPIIYSNVLYELIENVEKEMEKKLSKKPMGELKGTAQILKVFNIAKLGKVAGCIVKKGTISINSNIRILRNDKVIYMGKIISIKIVKEEKTQVTEADECGIGFDNFLDFEPNDIIEAYEN
modifications: bait human Fc-tagged dimer; N-glycosylation sequons mutated in Plasmodium baits
**Q.** How did the binding score (ADP376) turn out when B2 was run?
**A.** 10.1

**Q.** MNEAKEEKTNMRNNHLSRVTIEILPSDEDNDIFDINDALLDELIGINNI (also: human Fc-tagged dimer) [ADP256] was tested. Which binding score (ADP341) did it give?
**A.** 32.7

B3: ADP183 (protein)
chain: AEEHEITHKTYFDITIDDKPLGRIVFGLYGKVAPKTVENFVSICKGTVVDGKMLHYTNSIFHRIIPNFMAQGGDITNFNGAGGLSIYGKKFEDENFKVNHAKRGLLSMANAGKNTNGAQFFILFIPTPWLDGRHVVFGEVVEGLDKLVHIEAVGTDSGEPLKRVLVKESGELPL
modifications: bait human Fc-tagged dimer; N-glycosylation sequons mutated in Plasmodium baits
**Q.** Which results are given for B3?
**A.** binding score (ADP156): 5.67; binding score (ADP369): 6.98

B4: ADP198 (protein)
chain: ENVDTFKCNYAKKKKNGHHIKRHITNDEEKKKEYSFLMLGKENEEENKENKENNQNVNKDNNDNNNNEKKNEEQNHNNEKKQEEVINNNNNNVENKKEEENHNNDKKTDEQNHVNEKKQEGENNKHKKDDTIPPEKKINKENLLEYGTHDKEGHFIPSYKTLTDEILSTNNAMEKASSFLKIACSHVMKLIEFIPESKLSSQYIKVDNKNIYLKDIAVECQNIYFNLEKFSMTLIVFNSKINKFIYSQEK
modifications: bait human Fc-tagged dimer; N-glycosylation sequons mutated in Plasmodium baits
**Q.** What does the source list for B4?
**A.** binding score (ADP353): 21.4; binding score (ADP103): 5.51
